B1: E3 ubiquitin-protein ligase NHLRC1 (Homo sapiens), Q6VVB1 (parent)
chain: MAAEASESGPALHELMREAEISLLECKVCFEKFGHRQQRRPRNLSCGHVVCLACVAALAHPRTLALECPFCRRACRGCDTSDCLPVLHLIELLGSALRQSPAAHRAAPSAPGALTCHHTFGGWGTLVNPTGLALCPKTGRVVVVHDGRRRVKIFDSGGGCAHQFGEKGDAAQDIRYPVDVTITNDCHVVVTDAGDRSIKVFDFFGQIKLVIGGQFSLPWGVETTPQNGIVVTDAEAGSLHLLDVDFAEGVLRRTERLQAHLCNPRGVAVSWLTGAIAVLEHPLALGTGVCSTRVKVFSSSMQLVGQVDTFGLSLYFPSKITASAVTFDHQGNVIVADTSGPAILCLGKPEEFPVPKPMVTHGLSHPVALTFTKENSLLVLDTASHSIKVYKVDWG
partner: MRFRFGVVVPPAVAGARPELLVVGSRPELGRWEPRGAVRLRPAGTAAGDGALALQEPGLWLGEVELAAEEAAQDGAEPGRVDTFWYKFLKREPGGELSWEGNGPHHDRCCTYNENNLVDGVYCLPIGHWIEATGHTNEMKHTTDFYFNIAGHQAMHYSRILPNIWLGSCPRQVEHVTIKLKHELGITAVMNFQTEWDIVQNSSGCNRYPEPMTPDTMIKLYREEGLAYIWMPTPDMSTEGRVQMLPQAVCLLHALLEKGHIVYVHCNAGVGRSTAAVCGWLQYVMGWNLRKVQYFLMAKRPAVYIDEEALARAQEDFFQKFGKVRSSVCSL

Variants of: B1
Settings: with epm2a_human EPM2A
For C46Y, the “effect of a mutation on the interaction” value was “disrupting interaction”.
For D146N, the “effect of a mutation on the interaction” value was “decreasing interaction”.
For P69A, the “effect of a mutation on the interaction” value was “decreasing interaction”.
For L261P, the “effect of a mutation on the interaction” value was “disrupting interaction”.

— IntAct's records for PubMed 21505799
